Test results: patent US6500417 (DSM N V, dated 2002)
Where a chain is given by its changes, count along the chain named.

B1: hIL-3 deletion mutant 937 (deletion 89-95) (ligand)
chain: APMTQTTPLKTSWVNCSNMIDEIITHLKQPPLPLLDFNNLNGEDQDILMENNLRRPNLEAFNRAVKSLQNASAIESILKNLLPCLPLAPIHIKDGDWNEFRRKLTFYLKTLENAQAQQTTLSLAIF
notes: not shown: heterologous N-terminal leader of the E. coli fusion (pGB/IL-336: 12 aa; pGB/IL-339: 15 aa)
B2: hIL-3 deletion mutant 811 (deletion 31-49) (ligand)
chain: APMTQTTPLKTSWVNCSNMIDEIITHLKQPENNLRRPNLEAFNRAVKSLQNASAIESILKNLLPCLPLATAAPTRHPIHIKDGDWNEFRRKLTFYLKTLENAQAQQTTLSLAIF
notes: expressed in Bacillus, lacks a leader
B3: hIL-3 deletion mutant 933 (deletion 29-37) (ligand)
chain: APMTQTTPLKTSWVNCSNMIDEIITHLKNNLNGEDQDILMENNLRRPNLEAFNRAVKSLQNASAIESILKNLLPCLPLATAAPTRHPIHIKDGDWNEFRRKLTFYLKTLENAQAQQTTLSLAIF
notes: as for B2
B4: hIL-3 deletion mutant 822 (deletion 107-119) (ligand)
chain: APMTQTTPLKTSWVNCSNMIDEIITHLKQPPLPLLDFNNLNGEDQDILMENNLRRPNLEAFNRAVKSLQNASAIESILKNLLPCLPLATAAPTRHPIHIKDGDWNENAQAQQTTLSLAIF
notes: as for B1
B5: hIL-3 deletion mutant 936 (deletion 76-83) (ligand)
chain: APMTQTTPLKTSWVNCSNMIDEIITHLKQPPLPLLDFNNLNGEDQDILMENNLRRPNLEAFNRAVKSLQNASAIECLPLATAAPTRHPIHIKDGDWNEFRRKLTFYLKTLENAQAQQTTLSLAIF
notes: as for B1
B6: hIL-3 deletion mutant 812 (deletion 54-61) (ligand)
chain: APMTQTTPLKTSWVNCSNMIDEIITHLKQPPLPLLDFNNLNGEDQDILMENNLNRAVKSLQNASAIESILKNLLPCLPLATAAPTRHPIHIKDGDWNEFRRKLTFYLKTLENAQAQQTTLSLAIF
notes: as for B1
B7: hIL-3 combination deletion mutant X (deletions 1-14/120-133) (ligand)
chain: NCSNMIDEIITHLKQPPLPLLDFNNLNGEDQDILMENNLRRPNLEAFNRAVKSLQNASAIESILKNLLPCLPLATAAPTRHPIHIKDGDWNEFRRKLTFYLKTLE
notes: as for B2
B8: pGB/IL-336 IL-3 fusion protein (ligand)
chain: MTMITNSRGSVDAPMTQTTPLKTSWVNCSNMIDEIITHLKQPPLPLLDFNNLNGEDQDILMENNLRRPNLEAFNRAVKSLQNASAIESILKNLLPCLPLATAAPTRHPIHIKDGDWNEFRRKLTFYLKTLENAQAQQTTLSLAIF
B9: hIL-3 deletion mutant 820 (deletion 85-90) (ligand)
chain: APMTQTTPLKTSWVNCSNMIDEIITHLKQPPLPLLDFNNLNGEDQDILMENNLRRPNLEAFNRAVKSLQNASAIESILKNLLPCAPTRHPIHIKDGDWNEFRRKLTFYLKTLENAQAQQTTLSLAIF
notes: as for B1
B10: hIL-3 deletion mutant 810 (deletion 20-30) (ligand)
chain: APMTQTTPLKTSWVNCSNMPLPLLDFNNLNGEDQDILMENNLRRPNLEAFNRAVKSLQNASAIESILKNLLPCLPLATAAPTRHPIHIKDGDWNEFRRKLTFYLKTLENAQAQQTTLSLAIF
notes: also called 4810; not shown: heterologous N-terminal leader of the E. coli fusion (pGB/IL-336: 12 aa; pGB/IL-339: 15 aa)
B11: hIL-3 combination deletion mutant Z (deletions 1-14/116-133) (ligand)
chain: NCSNMIDEIITHLKQPPLPLLDFNNLNGEDQDILMENNLRRPNLEAFNRAVKSLQNASAIESILKNLLPCLPLATAAPTRHPIHIKDGDWNEFRRKLTFYL
notes: as for B2
B12: reference IL-3 preparation (B. licheniformis, full-length IL-3 cDNA in pGB/IL-322) (ligand)
chain: APMTQTTPLKTSWVNCSNMIDEIITHLKQPPLPLLDFNNLNGEDQDILMENNLRRPNLEAFNRAVKSLQNASAIESILKNLLPCLPLATAAPTRHPIHIKDGDWNEFRRKLTFYLKTLENAQAQQTTLSLAIF
modifications: radiolabeled with the Bolton-Hunter reagent when used as tracer
B13: hIL-3 substitution mutant 1484 (Arg54Arg55→Glu54Asp55) (ligand)
chain: B12 chain with R54E, R55D
notes: also called 54RR → ED; not shown: heterologous N-terminal leader of the E. coli fusion (pGB/IL-336: 12 aa; pGB/IL-339: 15 aa)
B14: hIL-3 substitution mutant 1486 (Arg63Ala64→Pro63Gly64) (ligand)
chain: B12 chain with R63P, A64G
notes: also called 63RA → PG; not shown: heterologous N-terminal leader of the E. coli fusion (pGB/IL-336: 12 aa; pGB/IL-339: 15 aa)
B15: hIL-3 substitution mutant 904 (Cys16→Ala16) (ligand)
chain: B12 chain with C16A
notes: also called 16C → A; not shown: heterologous N-terminal leader of the E. coli fusion (pGB/IL-336: 12 aa; pGB/IL-339: 15 aa)
B16: hIL-3 substitution mutant 1493 (Phe113Tyr114→Ala113Thr114) (ligand)
chain: B12 chain with F113A, Y114T
notes: also called 113FY → AT; not shown: heterologous N-terminal leader of the E. coli fusion (pGB/IL-336: 12 aa; pGB/IL-339: 15 aa)
B17: hIL-3 substitution mutant 1481 (Glu43Asp44→Lys43Arg44) (ligand)
chain: B12 chain with E43K, D44R
notes: also called 43ED→KR; not shown: heterologous N-terminal leader of the E. coli fusion (pGB/IL-336: 12 aa; pGB/IL-339: 15 aa)
B18: hIL-3 substitution mutant 1492 (Arg108Arg109Lys110→Glu108Asp109Glu110) (ligand)
chain: B12 chain with R108E, R109D, K110E
notes: also called 108RRK → EDE; not shown: heterologous N-terminal leader of the E. coli fusion (pGB/IL-336: 12 aa; pGB/IL-339: 15 aa)
B19: hIL-3 substitution mutant 905 (Cys84→Ala84) (ligand)
chain: B12 chain with C84A
notes: also called 84C → A; not shown: heterologous N-terminal leader of the E. coli fusion (pGB/IL-336: 12 aa; pGB/IL-339: 15 aa)
B20: hIL-3 substitution mutant 1483 (Glu50→Lys50) (ligand)
chain: B12 chain with E50K
notes: also called 50E → K; not shown: heterologous N-terminal leader of the E. coli fusion (pGB/IL-336: 12 aa; pGB/IL-339: 15 aa)
B21: hIL-3 double cysteine mutant 9045 (Cys16Cys84→Ala16Ala84) (ligand)
chain: B12 chain with C16A, C84A
notes: also called 16/84C → A; not shown: heterologous N-terminal leader of the E. coli fusion (pGB/IL-336: 12 aa; pGB/IL-339: 15 aa)
B22: hIL-3 substitution mutant 1488 (Lys79→Glu79) (ligand)
chain: B12 chain with K79E
notes: also called 79K → E; not shown: heterologous N-terminal leader of the E. coli fusion (pGB/IL-336: 12 aa; pGB/IL-339: 15 aa)

Each binder was assayed against T1, IL-3 receptor (human, UniProt P26951 19-378; P32927 17-897) (assay: cell-based or functional assay).
T1 sequence (P26951 19-378, chain 1 of 2): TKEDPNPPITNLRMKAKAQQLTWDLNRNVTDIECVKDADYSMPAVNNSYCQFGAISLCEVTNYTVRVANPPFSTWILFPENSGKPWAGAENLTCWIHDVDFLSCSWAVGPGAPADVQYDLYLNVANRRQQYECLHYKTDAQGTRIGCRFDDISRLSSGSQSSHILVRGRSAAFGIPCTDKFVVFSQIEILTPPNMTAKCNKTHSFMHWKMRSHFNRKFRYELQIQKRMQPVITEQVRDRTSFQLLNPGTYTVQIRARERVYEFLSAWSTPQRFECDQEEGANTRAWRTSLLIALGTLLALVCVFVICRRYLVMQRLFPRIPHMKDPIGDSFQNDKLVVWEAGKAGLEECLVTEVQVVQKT
T1 sequence (P32927 17-897, chain 2 of 2): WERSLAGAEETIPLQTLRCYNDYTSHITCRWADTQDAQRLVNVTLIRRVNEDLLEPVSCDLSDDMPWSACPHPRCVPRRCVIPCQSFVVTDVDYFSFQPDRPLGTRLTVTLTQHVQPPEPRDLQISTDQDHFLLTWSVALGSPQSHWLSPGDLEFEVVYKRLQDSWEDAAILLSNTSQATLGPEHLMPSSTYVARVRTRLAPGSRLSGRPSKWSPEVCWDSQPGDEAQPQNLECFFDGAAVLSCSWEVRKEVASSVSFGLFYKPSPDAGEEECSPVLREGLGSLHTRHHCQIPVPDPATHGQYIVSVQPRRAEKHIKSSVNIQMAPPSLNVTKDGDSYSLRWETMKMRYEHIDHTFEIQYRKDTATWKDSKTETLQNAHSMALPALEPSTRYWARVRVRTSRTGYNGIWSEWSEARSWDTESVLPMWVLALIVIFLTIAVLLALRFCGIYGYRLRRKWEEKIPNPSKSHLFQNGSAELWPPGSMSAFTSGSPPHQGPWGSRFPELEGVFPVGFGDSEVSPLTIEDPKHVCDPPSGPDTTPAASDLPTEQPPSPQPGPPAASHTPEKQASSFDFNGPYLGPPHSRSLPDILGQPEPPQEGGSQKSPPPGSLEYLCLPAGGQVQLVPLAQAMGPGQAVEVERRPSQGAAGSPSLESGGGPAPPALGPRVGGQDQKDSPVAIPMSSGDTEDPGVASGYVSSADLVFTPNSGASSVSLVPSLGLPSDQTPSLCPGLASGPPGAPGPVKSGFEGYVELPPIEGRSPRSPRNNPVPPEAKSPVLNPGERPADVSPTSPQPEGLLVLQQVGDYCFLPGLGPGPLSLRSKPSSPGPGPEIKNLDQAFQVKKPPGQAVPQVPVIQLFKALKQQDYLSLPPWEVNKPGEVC

REL. SPEC. BIOLOGICAL ACTIVITY (DNA synthesis of AML193 cells) | Binder
1e-05 relative to reference IL-3 | B1
0.0048 relative to reference IL-3 | B2
0.0057 relative to reference IL-3 | B3
0.00021 relative to reference IL-3 | B4
6.4e-06 relative to reference IL-3 | B5
5.3e-05 relative to reference IL-3 | B6
0.23 relative to reference IL-3 | B7
0.79 relative to reference IL-3 | B8
1.1e-05 relative to reference IL-3 | B9
0.0021 relative to reference IL-3 | B10
0.11 relative to reference IL-3 | B11
1 relative to reference IL-3 | B12
8e-05 relative to reference IL-3 | B13
9.8e-05 relative to reference IL-3 | B14
0.00024 relative to reference IL-3 | B15
< 1.2e-05 relative to reference IL-3 | B16
< 0.00015 relative to reference IL-3 | B17
3.1e-05 relative to reference IL-3 | B18
0.00019 relative to reference IL-3 | B19
0.0027 relative to reference IL-3 | B20
0.00031 relative to reference IL-3 | B21
0.0019 relative to reference IL-3 | B22

Each binder was assayed against T1, IL-3 receptor (assay: competition with radiolabeled hIL-3 for binding to cells, relative to reference IL-3).
Description: (§1) An ILK3 receptor binding assay was performed with purified recombinant hIL-3 (see EPA 0390252) was radiolabeled with the Bolton-Hunter reagent (as described by Budel et al., Blood 74 (1989) 565–571). The specific activity was estimated at 80,000 cpm/ng of IL-3. As target, either donor leukocytes, patient AML cells, or MV4-11 (ATCC: CRL-9591) cells were used. Cells were washed in Hanks Balanced Salt solution and suspended in Alpha-MEM plus 1% BSA. Usually, 3–10×10⁶ cells were incubated with 200–300 pM of radiolabeled IL-3 and various concentrations of unlabeled mutant protein in a total volume of 200 µl for 1 hr at 37° C. Cell-bound labeled IL-3 was centrifuged for 10 min at 1000×g at 4° C. through a 0.5 ml cushion of bovine calf serum in an Eppendorf tube (Budel et al., 1989). The tubes were frozen in liquid nitrogen and the tips cut off for counting in a Packard gamma counter. Competition binding was determined relative to the reference preparation. […] Radiolabeled IL-3 binding to patient AML blasts is competed with unlabeled IL-3 protein (reference preparation). Due to the low number of receptors (less than 200) on the target cells, data for competition mostly varied by one order of magnitude.

relative antagonistic potential (relative receptor binding activity / relative biological activity) | Binder
1.6 | B2
1.1 | B3
1.9 | B4
1.2 | B6
8.9 | B7
1.1 | B8
2.4 | B10
1.6 | B11
3.5 | B13
14 | B14
100 | B15
2 | B18
11 | B19
37 | B20
88 | B21
65 | B22

The binders below were run against T1, IL-3 receptor (assay: competition with radiolabeled IL-3 for binding to cells; NC: No competition was observed for the particular mutein preparation).
Description: as §1

binding result | Binder
no binding | B1
no binding | B5
no binding | B9
no binding | B16
no binding | B17
